For assay [1], the target named is interleukin 6 receptor gp 80 (soluble Human Recombinant IL-6R) (human) (UniProt P08887). The assay is described as follows: receptor binding assay, format not described.
Assay [2] has the same target. The assay is described as follows: panning of a 1:100 mixture with M13K07 on polystyrene balls coated with shrIL-6R, elution pH 3.6 (eluate 1:10).
For assay [3] the target is unchanged. The assay can be described thus: recovery of particles from balls coated with receptor, elution pH 3.6.
Assay [4] shares this target. The assay can be described thus: receptor binding assay, format not described; protein from bacterial periplasm.
Assay [5] shares this target. The assay can be described thus: cell-based or functional assay.
Assay [6] shares this target. The assay can be described thus: panning of a 1:1 mixture of 176 Arg and 179 Ala phasmids on receptor in solid phase, elution pH 3.6.

Sequence of UniProt P08887 (P08887 20-355 limits assumed): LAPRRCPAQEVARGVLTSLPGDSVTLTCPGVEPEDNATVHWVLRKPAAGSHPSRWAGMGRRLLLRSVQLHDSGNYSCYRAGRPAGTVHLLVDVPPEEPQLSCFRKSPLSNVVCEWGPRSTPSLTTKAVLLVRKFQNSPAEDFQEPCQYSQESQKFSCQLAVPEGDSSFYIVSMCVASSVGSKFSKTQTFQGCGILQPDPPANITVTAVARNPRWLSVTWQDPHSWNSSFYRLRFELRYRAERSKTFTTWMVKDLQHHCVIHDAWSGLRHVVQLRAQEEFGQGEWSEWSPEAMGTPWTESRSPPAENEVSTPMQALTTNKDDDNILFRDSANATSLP

In the case of “interleukin 6 helix C mutant 118 Arg / 121 Val (from UniProt P05231 29-212) (ligand)”, in assay [1], the Receptor binding (% of wild type) is 81%.

As to “hIL-6 phasmid (phage particle with hIL6-pIII fusion molecules) (from UniProt P05231 30-212)”, in assay [2], the enrichment with respect to M13K07 was 10 fold. In assay [3], the particles recovered relative to phasmid hIL-6 turned out to be 1 relative.

For “interleukin 6 helix D mutant of phage 5-4 (183 Tyr) (from UniProt P05231 29-212) (ligand)”, the Receptor binding (%) in assay [4] came to 240%.

For “IL-6 Tyr31Asp/Gly35Phe/Ser118Leu/Val121Asp (from UniProt P05231 29-212) (ligand)”, in assay [5], the Inhibition of wild type interleukin 6 activity (growth of XG-1 human myeloma cells, wild type IL-6 0.1 ng/ml) at antagonist 3.3 ng/ml is 0%; the Inhibition of wild type interleukin 6 activity (growth of XG-1 human myeloma cells, wild type IL-6 0.1 ng/ml) at antagonist 10 ng/ml was determined as 3%; the Inhibition of wild type interleukin 6 activity (growth of XG-1 human myeloma cells, wild type IL-6 0.1 ng/ml) at antagonist 30 ng/ml worked out at 10%; the Inhibition of wild type interleukin 6 activity (growth of XG-1 human myeloma cells, wild type IL-6 0.1 ng/ml) at antagonist 90 ng/ml worked out at 31%. Also, in assay [5], the Inhibition of wild type interleukin 6 activity (growth of XG-1 human myeloma cells, wild type IL-6 0.1 ng/ml) at antagonist 270 ng/ml was found to be 53%; the Inhibition of wild type interleukin 6 activity (growth of XG-1 human myeloma cells, wild type IL-6 0.1 ng/ml) at antagonist 810 ng/ml was 71%; the Inhibition of wild type interleukin 6 activity (growth of XG-1 human myeloma cells, wild type IL-6 0.1 ng/ml) at antagonist 2430 ng/ml is 76%; the Inhibition of wild type interleukin 6 activity (growth of XG-1 human myeloma cells, wild type IL-6 0.1 ng/ml) at antagonist 7290 ng/ml was 81%. Also, in assay [1], the Receptor binding (% of wild type) worked out at 63%.

Regarding “interleukin 6 helix A and C mutant 31 Asp / 35 Phe / 118 Arg / 121 Val (from UniProt P05231 29-212) (ligand)”, in assay [1], the Receptor binding (% of wild type) stood at 66%.

As to “interleukin 6 helix D mutant of phage 4-8 (181 Ile, 183 Asn) (from UniProt P05231 29-212) (ligand)”, in assay [4], the Receptor binding (%) was 100%.

On to M13K07 helper bacteriophage particles, for which the particles recovered relative to phasmid hIL-6 in assay [3] is 0.18 relative.

For “wild type human interleukin 6 (from UniProt P05231 30-212) (ligand)”, the Receptor binding (% of wild type) in assay [1] was 100%. Besides, the Receptor binding (%) in assay [4] is 100%.

Take “interleukin 6 mutant Gln175Ile/Gln183Ala (phage 5-2) (from UniProt P05231 29-212) (ligand)”: the Receptor binding (%) in assay [4] was determined as 260%.

On to “interleukin 6 mutant Gln175Ile/Ser176Arg/Gln183Ala (from UniProt P05231 29-212) (ligand)”, for which the Receptor binding (%) in assay [4] worked out at 450%.

For “interleukin 6 helix D mutant of phage 5-8 (183 Ala) (from UniProt P05231 29-212) (ligand)”, the Receptor binding (%) in assay [4] amounted to 240%.

On to “IL-6 Ser118Arg/Val121Asp (from UniProt P05231 29-212) (ligand)”, for which the Receptor binding (% of wild type) in assay [1] worked out at 66%.

As for “179 Ala phasmid (hIL-6 mutant 179 Ala shown on phasmid) (from UniProt P05231 29-212)”, the particles recovered relative to phasmid hIL-6 in assay [3] is 0.2 relative.

With “SAnt 1 (interleukin 6 Tyr31Asp/Gly35Phe/Ser118Arg/Val121Asp/Gln175Ile/Ser176Arg/Gln183Ala) (from UniProt P05231 29-212) (ligand)”, in assay [5], the 50% inhibition of interleukin 6 activity on hepatoma cells Hep3B (wild type IL-6 4 ng/ml) is 19 ng/mL, the 50% inhibition of interleukin 6 activity on hepatoma cells HepG2 (wild type IL-6 4 ng/ml) worked out at 32 ng/mL and the 50% inhibition of interleukin 6 activity on myeloma cells XG-1 (wild type IL-6 0.1 ng/ml) was determined as 22 ng/mL. Besides, the Receptor binding (% of wt) in assay [1] turned out to be 406%.

With “interleukin 6 helix C mutant 118 Ser / 121 Asp (from UniProt P05231 29-212) (ligand)”, the Receptor binding (% of wild type) in assay [1] came to 78%.

For the substance “interleukin 6 helix C mutant 118 Leu / 121 Asp (from UniProt P05231 29-212) (ligand)”, the Receptor binding (% of wild type) in assay [1] is 92%.

Turning to “IL-6 Tyr31Asp/Gly35Phe/Ser118Arg/Val121Asp (from UniProt P05231 29-212) (ligand)”, in assay [5], the 50% inhibition of interleukin 6 activity on hepatoma cells Hep3B (wild type IL-6 4 ng/ml) amounted to 164 ng/mL; the 50% inhibition of interleukin 6 activity on hepatoma cells HepG2 (wild type IL-6 4 ng/ml) is 132 ng/mL; the 50% inhibition of interleukin 6 activity on myeloma cells XG-1 (wild type IL-6 0.1 ng/ml) amounted to 190 ng/mL; the Inhibition of wild IL-6 (%) on human hepatoma cells (wild IL-6 4 ng/ml) at antagonist 16 ng/ml (4 X molar excess, 0.7 nM) was found to be 23%. Also, in assay [5], the Inhibition of wild IL-6 (%) on human hepatoma cells (wild IL-6 4 ng/ml) at antagonist 60 ng/ml (15 X molar excess, 2.7 nM) is 28%; the Inhibition of wild IL-6 (%) on human hepatoma cells (wild IL-6 4 ng/ml) at antagonist 164 ng/ml (41 X molar excess, 7.5 nM) worked out at 50%; the Inhibition of wild IL-6 (%) on human hepatoma cells (wild IL-6 4 ng/ml) at antagonist 500 ng/ml (125 X molar excess, 22.7 nM) turned out to be 75%; the Inhibition of wild IL-6 (%) on human hepatoma cells (wild IL-6 4 ng/ml) at antagonist 1000 ng/ml (250 X molar excess, 45.5 nM) is 82%. In assay [5], the Inhibition of wild IL-6 (%) on human hepatoma cells (wild IL-6 4 ng/ml) at antagonist 2000 ng/ml (500 X molar excess, 90.0 nM) turned out to be 90%; the Inhibition of wild IL-6 (%) on human hepatoma cells (wild IL-6 4 ng/ml) at antagonist 4000 ng/ml (1000 X molar excess, 181.8 nM) turned out to be 96%; the Inhibition of wild type interleukin 6 activity (growth of XG-1 human myeloma cells, wild type IL-6 0.1 ng/ml) at antagonist 3.3 ng/ml was found to be 6%; the Inhibition of wild type interleukin 6 activity (growth of XG-1 human myeloma cells, wild type IL-6 0.1 ng/ml) at antagonist 10 ng/ml stood at 12%. In assay [5], the Inhibition of wild type interleukin 6 activity (growth of XG-1 human myeloma cells, wild type IL-6 0.1 ng/ml) at antagonist 30 ng/ml was found to be 25%; the Inhibition of wild type interleukin 6 activity (growth of XG-1 human myeloma cells, wild type IL-6 0.1 ng/ml) at antagonist 90 ng/ml was 42%; the Inhibition of wild type interleukin 6 activity (growth of XG-1 human myeloma cells, wild type IL-6 0.1 ng/ml) at antagonist 270 ng/ml was determined as 64%; the Inhibition of wild type interleukin 6 activity (growth of XG-1 human myeloma cells, wild type IL-6 0.1 ng/ml) at antagonist 810 ng/ml stood at 84%. Besides, in assay [5], the Inhibition of wild type interleukin 6 activity (growth of XG-1 human myeloma cells, wild type IL-6 0.1 ng/ml) at antagonist 2430 ng/ml stood at 90% and the Inhibition of wild type interleukin 6 activity (growth of XG-1 human myeloma cells, wild type IL-6 0.1 ng/ml) at antagonist 7290 ng/ml was determined as 93%. Also, in assay [1], the Receptor binding (% of wild type) was 97% and the Receptor binding (% of wt) was found to be 97%.

As to “IL-6 Tyr31Asp/Gly35Phe/Ser118Phe/Val121Asp (from UniProt P05231 29-212) (ligand)”, in assay [5], the Inhibition of wild type interleukin 6 activity (growth of XG-1 human myeloma cells, wild type IL-6 0.1 ng/ml) at antagonist 3.3 ng/ml stood at 0%; the Inhibition of wild type interleukin 6 activity (growth of XG-1 human myeloma cells, wild type IL-6 0.1 ng/ml) at antagonist 10 ng/ml was determined as 7%; the Inhibition of wild type interleukin 6 activity (growth of XG-1 human myeloma cells, wild type IL-6 0.1 ng/ml) at antagonist 30 ng/ml is 18%; the Inhibition of wild type interleukin 6 activity (growth of XG-1 human myeloma cells, wild type IL-6 0.1 ng/ml) at antagonist 90 ng/ml is 35%. Besides, in assay [5], the Inhibition of wild type interleukin 6 activity (growth of XG-1 human myeloma cells, wild type IL-6 0.1 ng/ml) at antagonist 270 ng/ml is 59%; the Inhibition of wild type interleukin 6 activity (growth of XG-1 human myeloma cells, wild type IL-6 0.1 ng/ml) at antagonist 810 ng/ml was 84%; the Inhibition of wild type interleukin 6 activity (growth of XG-1 human myeloma cells, wild type IL-6 0.1 ng/ml) at antagonist 2430 ng/ml came out at 90%; the Inhibition of wild type interleukin 6 activity (growth of XG-1 human myeloma cells, wild type IL-6 0.1 ng/ml) at antagonist 7290 ng/ml was determined as 95%. In addition, in assay [1], the Receptor binding (% of wild type) came out at 76%.

Turning to “176 Arg phasmid (hIL-6 mutant 176 Arg shown on phasmid) (from UniProt P05231 30-212)”, the ratio of particles in the eluate against 179 Ala phasmid in assay [6] is 15 ratio (to 1). Besides, in assay [3], the particles recovered relative to phasmid hIL-6 was determined as 3 relative.

As to “interleukin 6 helix D mutant of phage 5-3 (175 Ile, 181 Val, 183 His) (from UniProt P05231 29-212) (ligand)”, the Receptor binding (%) in assay [4] turned out to be 80%.

These data come from EP0656117B1.
